In data set [1] the test system is RhlR:mBTL;PqsE (Pseudomonas aeruginosa;Pseudomonas aeruginosa). Briefly: EMSA. The following applies: scale: fold higher affinity than RhlR:mBTL alone. For orientation: A gel shift assay detects complexes by their altered migration in electrophoresis.
For another data set, the target named is 6x-His-PqsE(E182W) (P. aeruginosa, UniProt P20581 1-301, E182W). Kind of data set: cell-based or functional assay.
The target in a further data set is 6x-His-PqsE(E182W/S285W) (P. aeruginosa, UniProt P20581 1-301, E182W | S285W). Kind of data set: cell-based or functional assay.
The target of the next data set is 6x-His-PqsE (wild type) (P. aeruginosa, UniProt P20581 1-301). Briefly: cell-based or functional assay.

Take rhlA promoter EMSA probe: the binding signal in data set [1] was determined as 5.

B1: RhlR bound to meta-bromo-thiolactone (RhlR:mBTL) (receptor)
chain: MRNDGGFLLWWDGLRSEMQPIHDSQGVFAVLEKEVRRLGFDYYAYGVRHTIPFTRPKTEVHGTYPKAWLERYQMQNYGAVDPAILNGLRSSEMVVWSDSLFDQSRMLWNEARDWGLCVGATLPIRAPNNLLSVLSVARDQQNISSFEREEIRLRLRCMIELLTQKLTDLEHPMLMSNPVCLSHREREILQWTADGKSSGEIAIILSISESTVNFHHKNIQKKFDAPNKTLAAAYAAALGLI
On to B1, for which the “bioluminescence from prhlA-luxCDABE in E. coli carrying rhlR and pqsE(E182W), 500 nM C4HSL, against the no-PqsE control strain” value in the data set with 6x-His-PqsE(E182W) is around 11 fold. Further, the “bioluminescence from prhlA-luxCDABE in E. coli carrying rhlR and pqsE(E182W/S285W), 500 nM C4HSL, against the no-PqsE control strain” value in the data set with 6x-His-PqsE(E182W/S285W) was around 11 fold. The “bioluminescence from prhlA-luxCDABE in E. coli carrying rhlR and pqsE, 500 nM C4HSL, against the strain lacking PqsE” value in the data set with 6x-His-PqsE (wild type) is 42 fold.

The record behind these values is article PMC8754118, “The PqsE-RhlR Interaction Regulates RhlR DNA Binding to Control Virulence Factor Production in Pseudomonas aeruginosa” (Microbiology Spectrum, 2022).
